The supplement of paper PMC9170038

Tested on: MS2 coat protein
Test: apparent KD of MS2 coat protein; higher = weaker reporter binding
Conditions: Eterna round: R107
Summary of the method: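 Apparent KD is reported per design as the median of normalised binding-curve fits across its clusters. The RNA switches were made by on-chip transcription from Illumina sequencing clusters. SNAP-549-labelled MS2 coat protein was then added in twofold steps (0.7 or 1.5 nM to 3 µM; 0.8–1.5 h to 10–20 min per step) in 100 mM Tris-HCl pH 7.5, 80 mM KCl, 4 mM MgCl2, without or with constant ligand.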

[1] = input ligand: theophylline 20 uM
[2] = input ligand: theophylline 2 mM
[3] = input ligand: tryptophan 2.4 mM

Sequence | apparent KD of MS2 coat protein (input ligand: arginine 13.2 mM) [µM] | apparent KD of MS2 coat protein (input ligand: none) [µM] | apparent KD of MS2 coat protein [1] [µM] | apparent KD of MS2 coat protein [2] [µM] | apparent KD of MS2 coat protein [3] [µM]
AUGCCGGGCCGAAGGAGCGCAAUAGAAUGACAUGAGGAUCACCCAUGUGUGUGAUGUGGGUUGCAGGUAGGUCGCGGCCCGGCAU [#12 Exclusion - Arginine B] | 0.0176 | 0.0421 | 0.0802 | 0.0627 | 0.0683
AUGUCGUUGAAUAUAGCGGCUUGGAGUGAUACCAGCAUGAUCCAAUGCCCUUGGCAGCAUAACAUGAGGAUCACCCAUGUUCCAG [SSTheo A #26] | 0.0327 | – | 0.0687 | – | 0.0301
AUUCAUAACUGAAGGAGCGUGAUAUAAAUUUUUACAUGAGGAUCACCCAUGUUUCAUCGAUCACAGGUAGGUCGCAGAUUCUCAU [JR_SSArginiB_Sub012] | 0.0311 | 0.0553 | 0.0591 | 0.0451 | 0.0379
AUUGUGAACCUGAUCGUAUAAUGUAGCGAUACCAGUAUAAUACAUUACCCUUGGCAGCGCGACACAUGAGGAUCACCCAUGUAAG [theeternabot_exclusion_MS2_Theo_A_10] | 0.0196 | – | 0.0269 | – | 0.023
AUUUAUGGUCGUGAUACCAGACAUACAUGAGGAUCACCCAUGUGAAAUAACAUAAUUUAGGUCCCUUGGCAGCACUUUUUAAUUA [JR_Nu_SSTheophyB_Sub020] | 0.0439 | – | 0.0636 | – | 0.0524
AUUUAUUGUCGUGAUACCAGACAUACAUGAGGAUCACCCAUGUUAAGUAACAUUUUUUAGGUCCCUUGGCAGCACUUUUUAAUUA [JR_Nu_SSTheophyB_Sub018] | 0.0302 | – | 0.0361 | – | 0.0254
CAAGACAUGAGGAUCACCCAUGUGGUGUACCGAGGACCGGUACGGCCGCCACUCGUUCAUCGGUCGACAAGCUACCCUUCAAGGU [theeternabot_sameState_MS2_Trp_A_7] | 0.0255 | – | 0.0404 | 0.0277 | –
CAAUGCGGUUAGGAUACCAGCGACACACACUUCUCACAACACAUGAGGAUCACCCAUGUCCGCCCUUGGCAGCCUUGACUAAGGU [theeternabot_exclusion_MS2_Theo_B_39] | 0.0302 | – | 0.0518 | – | 0.0272
CACGAAAGAUCGGCCGCCACUAAUCGAUGUGUUCUUUCACAUGAGGAUCACCCAUGUUCUUGCGUUAGGACCGGGAUUGAGCGUG [#01 Exclusion Tryptophan B] | 0.0321 | – | 0.0501 | 0.0524 | –
CACGAAAGAUCGGCCGCCACUCAUGUUUCUUACAUGAGGAUCACCCAUGUAUUUUCUUUCUUUUAGAGGACCGGGAUCGAGCGUG [#01 Same State - Tryptophan B] | 0.0468 | – | 0.0784 | 0.0472 | –
CAGGCCUUGCCCGGUGUUCCGAAAGUGGAAGGAGCGCACAUUGGUGCAGGUAGGUCGCCACAUGAGGAUCACCCAUGUCUAGGCC [Aveatti] | 0.0549 | 0.02 | 0.111 | 0.0225 | 0.0502
CAUACUUUAGUAUGACAUGUGGGCAGUGAUACCAGAUACGAAAGUAUCCCUUGGCAGCACAACAUGAGGAUCACCCAUGUAAUUA [Theophylline A 2] | 0.0261 | – | 0.052 | – | 0.0373
CAUCCUAGUACAUGAGGAUCACCCAUGUAUCGAGGACCGGUACGGCCGCCACUCGAAUGGCGGAUCGUUGAUCCUUUAGGAUGAA [Tryp A Ex t4] | 0.0165 | 0.0143 | 0.0207 | 0.0209 | 0.0192
CAUGGGCUAAGACAUUAUUCGUAUUUUGAUACCAGAAAAUUGGCGUUCCCUUGGCAGCAAUAUACAUGAGGAUCACCCAUGUCCC [theeternabot_exclusion_MS2_Theo_A_23] | 0.0388 | – | 0.0709 | – | 0.0583
CCAUCUUCAUCGGCCGCCACUGAACCAAGGAGACAUGAGGAUCACCCAUGUAUGGGAAACCAUCAUAGGACCGGGAUGAAGGUGG [doubleHookLine] | 0.036 | – | 0.0561 | 0.0481 | –
CCAUGCGUAGGAAGGAGCGCAUACUUCACAUGAGGAUCACCCAUGUCGAGACGUGAGUCAGUGCAGGUAGGUCGCCUACGCAUGG [Same State - Arginine B (Freestyle 27)] | 0.0166 | 0.0176 | 0.0243 | 0.0206 | 0.0194
CCCUGGGUGGGAAGGAGCGCAUAGUGAACAUGAGGAUCACCCAUGUGCAGACGUGAGUCAUUGCAGGUAGGUCGCCCACCCAGGG [SS-ArgB22] | 0.0102 | 0.0189 | 0.0214 | 0.0302 | 0.0209
CCGAACAUGAGGAUCACCCAUGUUAGGGAUACCAGCUCAGACAUGGGCCCUUGGCAGCUCUAUAGCUGACGAAAGUCAGCAUCGG [#15 SameState-TheophyllineA] | 0.0361 | 0.035 | 0.0463 | 0.0237 | 0.0354
CCGGAGACCUCGGCCGCCACUCUCCAUGAGGAUCUCCCAUGUAACAUGAGGAUCACCCAUGUGCUGAGGACCGGGAGGUCCUCCU [Same State Tryptophan B GF 20] | 0.0187 | 0.0132 | 0.0164 | 0.017 | 0.0209

Sequence | apparent KD of MS2 coat protein (input ligand: arginine 13.2 mM) [µM] | apparent KD of MS2 coat protein (input ligand: none) [µM] | apparent KD of MS2 coat protein [1] [µM] | apparent KD of MS2 coat protein [2] [µM] | apparent KD of MS2 coat protein [3] [µM]
CCGGGCCCGGGCGACCGGGCCCGGACUGAAGGAGCGGGAAUAAACCCAGGUAGGUCGCAGAGAUCCACAUGAGGAUCACCCAUGU [!0.V] | 0.0317 | 0.0309 | 0.0496 | 0.0509 | 0.0486
CCUCGAUUUUGAUACCGAUAUGUCUUUGAUACCAGCGCCAUAGUACGCCCUUGGCAGCAAGAAACAUGAGGAUCACCCAUGUUAA [theeternabot_exclusion_MS2_Theo_A_36] | 0.0169 | – | 0.0264 | – | 0.0167
CCUCGUGCAACAUGAGGAUCACCCAUGUACCGAGGACCGGUACGGCCGCCACUCGAAAACGAGUACCAUUAGCGAAAGCUGAUGG [Trp A SS mod1] | 0.0119 | 0.0131 | 0.0164 | 0.0142 | 0.0141
CCUGAUAACUGAAGGAGCGAGAAACCCUACAUGAGGAUCACCCAUGUAUACACGGGAACUUCUCAGGUAGGUCGCAGUAUGUCGG [Rienat] | 0.0712 | 0.0802 | 0.106 | 0.145 | 0.093
CCUUAACAUGAGGAUCACCCAUGUCUGGAUACCAGAUACAGAUAAAUCCCUUGGCAGCCAAAAUAUGAAAGAAAUAAAAUAAGAA [theeternabot_sameState_MS2_Theo_A_29] | 0.0275 | – | 0.0663 | – | 0.0502
CGACGAGACCUGGAUACCAGCGACAUGAGGAUCACCCAUGUAUGUGGAUCAGCCAUGAUAUGCCCUUGGCAGCCACCGAGGUCGG [PPPMULLIN] | 0.00781 | 0.0116 | 0.0208 | 0.0317 | 0.0123
CGAGCUGACGGAAGGAGCGAAGCCUACUCGGUGUUCCCACAUGAGGAUCACCCAUGUGGGCUUCAGGUAGGUCGCCGAACAGUCG [Vecequlala] | 0.0261 | 0.0407 | 0.061 | 0.0869 | 0.0324
CGAGUGCUGUCGGCCGCCACUGCACAUGAGGAUCACCCAUGUAAAAGCUGGCUGUGACUGGUGUUCAGGACCGGGACAGGGUCUU [Inriedzaan] | 0.0109 | – | 0.0138 | 0.0117 | –
CGCCACUCGAGUGAUCCUCACGAGUGGCUACGAGGACCGGUACGGCCGCCACUCGAAUUAACAUGAGGAUCACCCAUGUAAUCUA [Brourdmod08] | 0.03 | – | 0.2 | 0.322 | –
CGCCGCGGGAGAAGGAGCGCGAUAACAUAACAUGAGGAUCACCCAUGUAAGAAAUUAAUCAUGCAGGUAGGUCGCUCCCGCGGCG [Same State Arginine B GF 4] | 0.0163 | 0.0195 | 0.0265 | 0.0233 | 0.0225
CGGUCGGUCGGCCGGUGAUUAUGGGAUGAAGGAGCGUGGGAAGCUACAGGUAGGUCGCAUCCGAAAGAUGAGGAUCACCCAUCUU [SSArg A #24Alt-Ms2 Mod] | 0.0244 | 0.0303 | 0.0344 | 0.0464 | 0.0215
CGGUUUGUGAUGGAUACCAGCAGAGAAAAUGUUUAUCCUAACAUGAGGAUCACCCAUGUGUGCCCUUGGCAGCUGUUGUGGGCUG [8.W] | 0.046 | – | 0.0726 | – | 0.0497
CGUAUGUAGACGGCCGCCACUGGAACAAGAGGAUCACCCUUGUACAGGGUGGGACUAUCGAGAGUCAGGACCGGGUCUACAUACA [Tryp B Ex t2] | 0.112 | 0.15 | 0.19 | 0.14 | 0.0197
CGUGAUACUGGUAUACUCUGAAGAUCAAUUCGAGGACCGGUACGGCCGCCACUCGUUAGUAGACAUGAGGAUCACCCAUGUUAGU [theeternabot_exclusion_MS2_Trp_A_48] | 0.0118 | – | 0.0206 | 0.0177 | –
CUAAUUAUAUCGGCCGCCACUUACUCAUGAGGUAACAACAUGAGGAUCACCCAUGUUUGAGGAUCAAGGACCGGGAUAUAAUUAG [AstrosSSTry#24] | 0.0305 | – | 0.033 | 0.0349 | –
CUAUAAGUACCGGUCCUCAGAUCCUCAUGACGAGGACCGGUACGGCCGCCACUCGAAACAUGAGGAUCACCCAUGUAAUAACAUU [Brourdmod22] | 0.0185 | – | 0.0301 | 0.0249 | –
CUAUAAGUACCGGUCCUCAGAUCCUCAUGACGAGGACCGGUACGGCCGCCACUCGAAACAUGAGGAUCACCCAUGUAAUAAUACC [Brourdmod16] | 0.0175 | – | 0.0475 | 0.0626 | –
CUGCCAUGCAGAGAUACCAGUGAGCUCAGAACAUGAGGAUCACCCAUGUAGGUUGCCGAUCACCCUUGGCAGCUCUGCAUGGCAG [*$+%!] | 0.0387 | 0.0308 | 0.0284 | 0.0109 | 0.0296
CUGUUUGUUUGGGUCUGUCAAAAGAACGAUACCAGCCGCAUUAUGGGCCCUUGGCAGCGUAGGACAUGAGGAUCACCCAUGUACG [theeternabot_exclusion_MS2_Theo_A_16] | 0.016 | – | 0.022 | – | 0.0162
